Experimental data from patent US20200284794A1.

How the values were obtained:
[1] = biological target: Keratin 17 recombinant protein (human) (UniProt Q04695); experiment: sandwich ELISA: E3 coated 2 ug/mL, recombinant K17 calibrator 37.0 ng/mL, detection 2D10-HRP 1 ug/mL
[2] = biological target: Keratin 17 recombinant protein (human) (UniProt Q04695); experiment: sandwich ELISA: E3 coated 2 ug/mL, recombinant K17 calibrator 111.1 ng/mL, detection 2D10-HRP 1 ug/mL
[3] = biological target: Keratin 17 recombinant protein (human) (UniProt Q04695); experiment: sandwich ELISA: E3 coated 2 ug/mL, recombinant K17 calibrator 1.4 ng/mL, detection 2D10-HRP 1 ug/mL
[4] = biological target: Keratin 17 in HeLa cells (human) (UniProt Q04695); experiment: microfluidic cytometry (Moxi Go), methanol-fixed HeLa cells, E3 primary antibody, PE anti-mouse secondary
[5] = biological target: Keratin 17 recombinant protein (human) (UniProt Q04695); experiment: sandwich ELISA: E3 coated 2 ug/mL, recombinant K17 calibrator 333.3 ng/mL, detection 2D10-HRP 1 ug/mL
[6] = biological target: Keratin 17 recombinant protein (human) (UniProt Q04695); experiment: sandwich ELISA: E3 coated 2 ug/mL, recombinant K17 calibrator 4.1 ng/mL, detection 2D10-HRP 1 ug/mL
[7] = biological target: Keratin 17 recombinant protein (human) (UniProt Q04695); experiment: sandwich ELISA: E3 coated 2 ug/mL, recombinant K17 calibrator 1000 ng/mL, detection 2D10-HRP 1 ug/mL
[8] = biological target: Keratin 17 recombinant protein (human) (UniProt Q04695); experiment: sandwich ELISA: E3 coated 2 ug/mL, recombinant K17 calibrator 12.3 ng/mL, detection 2D10-HRP 1 ug/mL
[9] = biological target: Keratin 17 recombinant protein (human) (UniProt Q04695); experiment: sandwich ELISA: E3 capture, 2D10-HRP detection, recombinant K17 calibrators

OD Avg. (450 nm) [1]: 0.838 OD
OD-1 (450 nm) [1]: 0.844 OD
OD-2 (450 nm) [1]: 0.832 OD
OD Avg. (450 nm) [2]: 2.38 OD
OD-1 (450 nm) [2]: 2.47 OD
OD-2 (450 nm) [2]: 2.29 OD
OD Avg. (450 nm) [3]: 0.084 OD
OD-1 (450 nm) [3]: 0.087 OD
OD-2 (450 nm) [3]: 0.081 OD
% K17-positive cells [4]: 90.4%
OD Avg. (450 nm) [5]: 3.59 OD
OD-1 (450 nm) [5]: 3.58 OD
OD-2 (450 nm) [5]: 3.6 OD
OD Avg. (450 nm) [6]: 0.141 OD
OD-1 (450 nm) [6]: 0.142 OD
OD-2 (450 nm) [6]: 0.14 OD
OD Avg. (450 nm) [7]: 3.59 OD
OD-1 (450 nm) [7]: 3.56 OD
OD-2 (450 nm) [7]: 3.62 OD
OD Avg. (450 nm) [8]: 0.321 OD
OD-1 (450 nm) [8]: 0.323 OD
OD-2 (450 nm) [8]: 0.318 OD
limit of sensitivity [9]: 1 ng/mL
Substance: mouse monoclonal-[E3] anti-human K17 antibody
